From patent US9629804B2, “Lipid formulations for delivery of messenger RNA” (Shire Human Genetic Therapies, Inc., priority 2013, dated 2017)

System: BHK-21 cells
Test: hSMN-1 western blot of BHK-21 cells transfected with hSMN mRNA
Type: cell-based
Conditions: one microgram mRNA, Lipofectamine 2000, 16-18 hours post-transfection
Procedure: Standard western blot procedures were followed employing various antibodies that recognizes hSMN protein, such as: (A) anti-SMN 4F11 antibody at 1:1,000 dilution; (B) Pierce PA5-27309a-SMN antibody at 1:1,000 dilution; and (C) LSBio C138149a-SMN antibody at 1:1,000 dilution. For each experiment one microgram of hSMN mRNA was transfected into ˜1×10^6 BHK-21 cells using Lipofectamine 2000. Cells were treated with OptiMem and harvested 16-18 hours post-transfection. Cell lysates were harvested, processed and loaded on to an 8-16% Tris Glycine gel. The gel was transferred using a PVDF membrane and treated with the respective primary antibody. Goat anti-mouse HRP antibody was used as the secondary antibody at 1:10,000 dilution for 45 minutes at room temperature followed by washing and development.

B1: hSMN mRNA: codon-optimized human Survival of Motor Neuron-1 messenger RNA (SEQ ID NO: 4), in vitro transcribed, Cap 1, poly(A) tail (nucleic acid)
chain: GGACAGAUCGCCUGGAGACGCCAUCCACGCUGUUUUGACCUCCAUAGAAGACACCGGGACCGAUCCAGCCUCCGCGGCCGGGAACGGUGCAUUGGAACGCGGAUUCCCCGUGCCAAGAGUGACUCACCGUCCUUGACACGAUGGCCAUGAGCAGCGGAGGCAGCGGCGGAGGAGUGCCCGAGCAGGAGGACAGCGUGCUGUUCAGGAGAGGCACCGGCCAGAGCGAUGACAGCGAUAUCUGGGACGAUACCGCUCUGAUCAAGGCCUACGACAAGGCCGUGGCCAGCUUCAAGCACGCCCUGAAAAACGGCGACAUCUGCGAGACCAGCGGCAAGCCCAAGACAACCCCCAAGAGAAAGCCCGCCAAGAAGAAUAAGAGCCAGAAAAAGAACACCGCCGCCAGCCUGCAGCAGUGGAAGGUGGGCGACAAGUGCAGCGCCAUCUGGAGCGAGGACGGCUGCAUCUACCCCGCCACCAUCGCCAGCAUCGACUUCAAGAGAGAGACCUGCGUGGUCGUGUACACCGGCUACGGCAACAGAGAGGAGCAGAACCUGAGCGACCUGCUGAGCCCCAUUUGUGAGGUGGCCAAUAACAUCGAACAGAACGCCCAGGAGAACGAGAAUGAAAGCCAGGUGAGCACCGACGAGAGCGAGAACAGCAGAUCUCCUGGCAACAAGAGCGACAACAUCAAGCCUAAGUCUGCCCCUUGGAACAGCUUCCUGCCCCCUCCUCCACCCAUGCCCGGACCCAGACUGGGACCCGGAAAACCUGGCCUGAAGUUCAACGGACCACCUCCCCCUCCACCUCCUCCCCCACCUCAUCUCCUGAGCUGCUGGCUGCCACCCUUCCCCAGCGGACCCCCUAUCAUCCCACCACCCCCUCCCAUCUGCCCCGACAGCCUGGACGACGCCGAUGCCCUGGGCAGCAUGCUGAUCAGCUGGUACAUGAGCGGCUACCACACAGGAUACUACAUGGGCUUCAGACAGAACCAGAAGGAGGGCAGAUGCUCCCACUCCCUGAACUGACGGGUGGCAUCCCUGUGACCCCUCCCCAGUGCCUCUCCUGGCCCUGGAAGUUGCCACUCCAGUGCCCACCAGCCUUGUCCUAAUAAAAUUAAGUUGCAUCAAAGCU
modifications: Cap 1, poly(A) tail
  western blot signal for hSMN-1 protein in transfected BHK-21 cells: strong signal for hSMN-1
